The values below are quoted from earlier work in publication PMC7481795.

Series [1] deals with β-glucuronidase (Homo sapiens) (UniProt P08236).
For series [2] the target is unchanged. The source holds these as a separate data set.

Where two headings read alike, the source gives them in different places.

β-glucuronidase (Homo sapiens), sequence (P08236 23-651): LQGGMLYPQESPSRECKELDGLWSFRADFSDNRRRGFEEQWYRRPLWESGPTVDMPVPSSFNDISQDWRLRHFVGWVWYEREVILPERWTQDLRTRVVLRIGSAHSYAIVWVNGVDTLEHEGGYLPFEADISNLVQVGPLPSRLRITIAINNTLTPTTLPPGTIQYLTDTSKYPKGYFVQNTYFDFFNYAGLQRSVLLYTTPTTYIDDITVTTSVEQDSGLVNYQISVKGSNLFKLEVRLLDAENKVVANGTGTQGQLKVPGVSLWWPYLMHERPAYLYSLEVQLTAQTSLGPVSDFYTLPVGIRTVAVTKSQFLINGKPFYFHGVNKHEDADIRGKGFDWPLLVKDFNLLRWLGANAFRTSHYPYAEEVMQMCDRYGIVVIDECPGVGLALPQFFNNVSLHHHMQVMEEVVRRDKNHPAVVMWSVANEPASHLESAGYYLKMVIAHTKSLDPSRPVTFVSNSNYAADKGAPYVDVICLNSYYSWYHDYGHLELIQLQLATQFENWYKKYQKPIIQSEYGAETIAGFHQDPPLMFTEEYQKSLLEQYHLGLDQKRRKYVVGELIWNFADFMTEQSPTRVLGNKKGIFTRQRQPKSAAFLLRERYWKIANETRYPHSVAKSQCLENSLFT
cation-independent mannose 6-phosphate receptor domain 3, sequence (P08169 332-477): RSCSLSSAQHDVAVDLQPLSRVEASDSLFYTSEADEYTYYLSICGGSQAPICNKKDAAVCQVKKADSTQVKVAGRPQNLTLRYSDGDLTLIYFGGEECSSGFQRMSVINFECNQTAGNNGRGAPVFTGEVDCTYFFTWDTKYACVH
cation-independent mannose 6-phosphate receptor domains 1-3, sequence (P08169 45-477): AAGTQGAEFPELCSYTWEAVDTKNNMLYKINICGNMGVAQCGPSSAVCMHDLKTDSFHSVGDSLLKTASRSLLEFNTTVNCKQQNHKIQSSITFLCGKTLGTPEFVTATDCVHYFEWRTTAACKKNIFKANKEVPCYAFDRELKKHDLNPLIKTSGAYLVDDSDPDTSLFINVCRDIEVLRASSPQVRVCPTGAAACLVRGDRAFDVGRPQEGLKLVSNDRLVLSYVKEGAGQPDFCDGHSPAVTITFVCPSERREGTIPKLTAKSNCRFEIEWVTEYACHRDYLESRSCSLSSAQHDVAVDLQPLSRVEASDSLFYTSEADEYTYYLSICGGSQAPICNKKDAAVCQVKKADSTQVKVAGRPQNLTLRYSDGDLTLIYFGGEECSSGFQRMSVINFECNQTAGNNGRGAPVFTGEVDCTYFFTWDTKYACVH

Turning to “cation-independent mannose 6-phosphate receptor domain 3 (from UniProt P08169)”, the Kd (in general, a measure of binding affinity in units of concentration) in series [1] is 500 nM.
Consider “cation-independent mannose 6-phosphate receptor domains 1-3 (from UniProt P08169)”, for which the Kd in series [2] was 0.5 nM.
